The values that follow come from article PMC4675670.

The series relates to O=C(O)[C@@H]1CCCN1. Description: enzyme kinetics, Km. It counts as biochemical, Plasmodium falciparum. The note with it: proline-binding pocket.

Turning to “cytoplasmic prolyl-tRNA synthetase (PfcPRS, PF3D7_1213800) (Plasmodium falciparum 3D7)”, the Km was 117.0 µM.
Turning to “cytoplasmic prolyl-tRNA synthetase (PfcPRS, PF3D7_1213800) (Plasmodium falciparum 3D7; L482H)”, the Km stood at 747.7 µM.

As a reminder, the Km is the substrate concentration at which the rate is half of its maximum.
